In patent publication US20140120095A1 (Boehringer Ingelheim, published 2014):
Positions count from the first letter of the chain named.

T1: cynomolgus DLL4 overexpressed on cells (cynomolgus, UniProt Q9NR61 27-685 (human entry))
T1 construct: also called cyno DII4; cDLL4
T1 chain: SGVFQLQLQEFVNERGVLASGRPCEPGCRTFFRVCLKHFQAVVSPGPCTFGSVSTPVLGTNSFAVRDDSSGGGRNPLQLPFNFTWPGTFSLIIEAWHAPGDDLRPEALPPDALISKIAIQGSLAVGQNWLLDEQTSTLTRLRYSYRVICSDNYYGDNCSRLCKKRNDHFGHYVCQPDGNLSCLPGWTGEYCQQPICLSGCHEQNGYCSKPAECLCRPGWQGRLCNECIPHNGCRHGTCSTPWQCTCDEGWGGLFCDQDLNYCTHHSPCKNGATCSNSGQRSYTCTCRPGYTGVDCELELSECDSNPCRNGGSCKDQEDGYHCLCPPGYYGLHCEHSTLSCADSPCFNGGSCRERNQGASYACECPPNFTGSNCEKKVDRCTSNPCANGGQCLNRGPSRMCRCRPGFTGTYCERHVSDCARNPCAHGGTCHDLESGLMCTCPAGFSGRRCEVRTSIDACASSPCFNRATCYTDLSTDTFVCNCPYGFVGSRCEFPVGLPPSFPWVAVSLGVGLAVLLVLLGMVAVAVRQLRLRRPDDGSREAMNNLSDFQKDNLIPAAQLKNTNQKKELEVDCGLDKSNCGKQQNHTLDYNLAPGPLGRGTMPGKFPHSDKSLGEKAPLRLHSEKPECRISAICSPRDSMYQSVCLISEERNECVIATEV

T2: human DLL1 (human, UniProt O00548 18-545, limits assumed)
T2 construct: also called hDLL1
T2 sequence (looked up): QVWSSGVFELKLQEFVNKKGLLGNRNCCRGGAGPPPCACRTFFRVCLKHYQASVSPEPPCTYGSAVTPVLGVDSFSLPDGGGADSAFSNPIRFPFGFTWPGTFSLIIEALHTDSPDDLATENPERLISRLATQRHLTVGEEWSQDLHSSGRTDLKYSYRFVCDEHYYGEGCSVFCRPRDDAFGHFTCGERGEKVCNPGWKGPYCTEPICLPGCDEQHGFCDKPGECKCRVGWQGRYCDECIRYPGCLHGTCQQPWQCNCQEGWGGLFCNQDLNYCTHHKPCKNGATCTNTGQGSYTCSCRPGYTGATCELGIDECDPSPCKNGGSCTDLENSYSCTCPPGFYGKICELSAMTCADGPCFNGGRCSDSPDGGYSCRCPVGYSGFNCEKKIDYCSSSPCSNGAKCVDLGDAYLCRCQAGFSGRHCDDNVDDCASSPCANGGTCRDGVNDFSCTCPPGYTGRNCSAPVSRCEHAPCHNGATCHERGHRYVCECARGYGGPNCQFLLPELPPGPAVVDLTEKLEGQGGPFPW

B1: DLLBII55D12 (VHH)
VHH: EVQLVESGGGLVQPGGSLRLSCAASGFTFDDYAIGWFRQAPGKEPEGISCISSSGGITYYADSVKGRFTISRDNAKNTVYLQMNSLKPEDTAVYYCATPGIAACRGIHYTGQGTQVTVSS
B2: DLLBII56C04 (VHH)
VHH: B1 VHH with A23T, D31V, G56S, I70T, N74S, T110W
B3: DLLBII56H08 (VHH)
VHH: B1 VHH with G47E
B4: DLLBII57C11 (VHH)
VHH: B1 VHH with A23T, G56S, Y60D, T110W
B5: DLLBII039 (VHH)
VHH: EVQLVESGGGLVQPGGSLRLSCAASGFTIGSYDMSWVRRAPGKGPEWVSSISSGGGSTYYADYVKGRFTISRDNAKNTLYLQMNSLRPEDTAVYYCAADRYIWARQGEYWGAYEYDYWGQGTLVTVSS
B6: A1 (bispecific antibody)
chain: VQLVESGGGLVQPGGSLRLSCAASGRTFSSYSMGWFRQAPGKEREFVVAISKGGYKYDAVSLEGRFTISRDNAKNTVYLQINSLRPEDTAVYYCASSRAYGSSRLRLADTYEYWGQGTLVTVSSGGGGSGGGGSGGGGCGGGGSGGGGSGGGGSGGGGSEVQLVESGGGLVQPGGSLRLSCAASGRTFSSYAMAWYRQAPGKEREYVAAIRWSGGTAYYADSVKGRFTISRDNAKNTVYLQMNSLRPEDTAVYYCANRAPDTRLAPYEYDHWGQGTLVTVSS
modifications: PEGylated at the Cys at position 15 of the 35 Gly-Ser linker
notes: VEGFBII038 (N-terminal E missing) - 35GS(Cys15) - DLLBII018
B7: A3 (bispecific antibody)
chain: VQLVESGGGLVQPGGSLRLSCAASGRTFSSYSMGWFRQAPGKEREFVVAISKGGYKYDAVSLEGRFTISRDNAKNTVYLQINSLRPEDTAVYYCASSRAYGSSRLRLADTYEYWGQGTLVTVSSGGGGSGGGGSGGGGCGGGGSGGGGSGGGGSGGGGSEVQLVESGGGLVQPGGSLRLSCAASGIRFISMAWYRQAPGKQRELVARISSGGTTAYADSVKGRFTISRDNSKNTVYLQMNSLRAEDTAVYYCNTFSSRPNPWGQGTLVTVSSGGGGSGGGGSGGGGSGGGGSGGGGSGGGGSGGGGSEVQLVESGGGLVQPGGSLRLSCAASGRTFSSYAMAWYRQAPGKEREYVAAIRWSGGTAYYADSVKGRFTISRDNAKNTVYLQMNSLRPEDTAVYYCANRAPDTRLAPYEYDHWGQGTLVTVSS
modifications: PEGylated at the Cys at position 15 of the 35 Gly-Ser linker
notes: VEGFBII038 - 35GS(Cys15) - VEGFBII032 - 35GS - DLLBII018

What was measured:
human Jagged-1 = target: T3, human Jagged-1 (human, UniProt P78504 34-1067, limits assumed); experiment: binding ELISA on coated recombinant human Jagged-1, OD 405 nm
T3 construct: also called hJagged-1; hJAG1
Protocol: (§1) Absence of binding to homologous ligands human DLL1 and human Jagged-1 is assessed via solid phase binding assay (ELISA). In brief, human DLL1 (Alexis, San Diego, Calif., USA) and human Jagged-1 (Alexis, San Diego, Calif., USA) are coated overnight at 4° C. at 1 μg/mL in a 96-well MaxiSorp plate (Nunc, Wiesbaden, Germany). Wells are blocked with a casein solution (1% in PBS). VHHs are applied as dilution series and binding is detected using a mouse anti-myc (Roche) and an anti-mouse-AP conjugate (Sigma, St. Louis, Mo., USA).

[1] = target: T1, cynomolgus DLL4 overexpressed on cells; experiment: FACS titration on HEK293-cDLL4 cells, MCF
Protocol: (§2) In order to determine the cynomologus cross-reactivity of the VHHs, a FACS binding experiment is performed. Cynomolgus DII4 expressing HEK293 cells (transient or stable transfection) are used for a titration binding experiment of the VHHs. After a 30 minutes incubation on ice, all samples are washed and detection is performed by applying anti-c-myc˜Alexa647 (Santa Cruz Biotechnology, Santa Cruz, Calif., USA). Human and mouse DII4 overexpressing HEK293 cells are taken as reference. The mean MCF value is determined on the FACS Array and used for calculation of the EC₅₀ value (see FIG. 9 A-E).

recombinant human DLL4 [2] = target: T4, recombinant human DLL4 (human, UniProt Q9NR61 25-522); experiment: competition ELISA, biot-hDLL4 to coated hNotch1-Fc
T4 construct: also called rhDLL4; hDLL4
Excerpt: Residual binding of biotinylated human DII4 is detected using horseradish peroxidase (HRP) conjugated extravidin (Sigma, St. Louis, Mo., USA) (FIG. 3 A-C). Human DII4 is biotinylated as described above.

recombinant mouse DLL4 = target: T5, recombinant mouse DLL4 (mouse, UniProt Q9JI71 27-532); experiment: binding ELISA, coated rmDLL4
T5 construct: extracellular domain; also called rmDLL4; mDLL4
T5 sequence (Q9JI71 27-532): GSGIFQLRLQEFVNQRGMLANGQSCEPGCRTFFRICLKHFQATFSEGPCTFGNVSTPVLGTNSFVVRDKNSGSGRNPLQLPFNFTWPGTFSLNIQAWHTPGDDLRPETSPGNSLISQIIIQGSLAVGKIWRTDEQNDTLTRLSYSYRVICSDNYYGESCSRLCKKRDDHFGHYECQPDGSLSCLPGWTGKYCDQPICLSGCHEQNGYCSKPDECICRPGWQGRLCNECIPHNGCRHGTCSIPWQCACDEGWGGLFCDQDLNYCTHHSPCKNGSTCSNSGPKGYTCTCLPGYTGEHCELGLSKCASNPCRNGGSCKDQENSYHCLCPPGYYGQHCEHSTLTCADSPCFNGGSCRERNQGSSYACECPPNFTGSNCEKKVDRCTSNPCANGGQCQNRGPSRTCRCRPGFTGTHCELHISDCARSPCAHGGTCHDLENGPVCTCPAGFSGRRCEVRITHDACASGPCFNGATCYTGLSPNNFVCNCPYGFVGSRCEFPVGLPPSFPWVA
Protocol: (§3) In order to determine cross-reactivity to mouse DII4 a binding ELISA is performed. […] Wells are blocked with a casein solution (1% in PBS). VHHs are applied as dilution series and binding is detected using a mouse anti-myc (Roche) and an anti-mouse-AP conjugate (Sigma, St Louis, Mo., USA) (FIG. 7 A-H). As reference, binding to human DII4 is measured.

human DLL1 = target: T2, human DLL1; experiment: binding ELISA on coated recombinant human DLL1, OD 405 nm
Protocol: as §1

[3] = target: T6, human DLL4 overexpressed on cells (human, UniProt Q9NR61 27-685); experiment: competitive FMAT, hNotch1-Fc on CHO-hDLL4
T6 construct: full length human DLL4 on CHO or HEK293 cells; also called CHO-hDLL4; CHO-hDII4

[4] = target: T6, human DLL4 overexpressed on cells; experiment: FACS titration on HEK293-hDLL4 cells, MCF
Protocol: as §2

[5] = target: T7, mouse DLL4 overexpressed on cells (mouse, UniProt Q9JI71 27-686); experiment: competitive FMAT, hNotch1-Fc on CHO-mDLL4
T7 construct: whole, on cells; also called CHO-mDLL4; CHO-mDII4
T7 sequence (Q9JI71 27-686): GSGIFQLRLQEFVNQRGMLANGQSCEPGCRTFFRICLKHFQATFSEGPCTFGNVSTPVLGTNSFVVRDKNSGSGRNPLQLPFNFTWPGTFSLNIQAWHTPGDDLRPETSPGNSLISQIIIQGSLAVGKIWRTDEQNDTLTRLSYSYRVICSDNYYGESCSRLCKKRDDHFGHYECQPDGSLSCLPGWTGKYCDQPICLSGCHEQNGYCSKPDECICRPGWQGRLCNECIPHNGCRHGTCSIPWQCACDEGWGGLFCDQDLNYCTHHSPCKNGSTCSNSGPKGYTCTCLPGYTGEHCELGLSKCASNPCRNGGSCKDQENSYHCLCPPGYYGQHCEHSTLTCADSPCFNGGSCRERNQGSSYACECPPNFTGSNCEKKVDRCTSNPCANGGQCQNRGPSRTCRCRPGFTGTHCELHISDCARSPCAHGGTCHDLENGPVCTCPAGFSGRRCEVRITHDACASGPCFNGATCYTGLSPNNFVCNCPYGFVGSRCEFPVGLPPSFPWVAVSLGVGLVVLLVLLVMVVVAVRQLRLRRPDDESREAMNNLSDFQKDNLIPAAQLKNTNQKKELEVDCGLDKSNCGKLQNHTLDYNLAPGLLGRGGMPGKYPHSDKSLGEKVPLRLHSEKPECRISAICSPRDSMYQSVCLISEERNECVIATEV

recombinant human DLL4 [6] = target: T4, recombinant human DLL4; experiment: competition AlphaScreen, biot-hDLL4/hNotch1-Fc
Protocol: In brief, 1 nM biotinylated human DII4 is captured on streptavidin-coated donor beads (20 μg/mL), while 0.4 nM of the receptor human Notch1 (as a Fc fusion protein) is captured on anti-human Fc VHH-coated acceptor beads (20 μg/mL). Both loaded beads are incubated together with a dilution range of the competing VHH (FIG. 4 A-E).

recombinant human DLL4 [7] = target: T4, recombinant human DLL4; experiment: binding ELISA, coated rhDLL4
Protocol: as §3

recombinant human DLL4 [8] = target: T4, recombinant human DLL4; experiment: SPR Biacore T100, hDLL4 on chip, VHH/Fab injected
Protocol: Kinetic analysis to determine the affinity of the DII4-VHH interaction is performed by Surface Plasmon Resonance (SPR) on a Biacore T100 instrument. […] Purified VHHs or Fab fragment are injected for 2 minutes at different concentrations (between 10 and 300 nM) and allowed to dissociate for 20 min at a flow rate of 45 μl/min. Between sample injections, the surfaces are regenerated with 10 mM glycine pH1.5 and 100 mM HCl. HBS-N (Hepes buffer pH7.4) is used as running buffer. If possible, data are evaluated by fitting a 1:1 interaction model (Langmuir binding) onto the binding curves. The affinity constant KD is calculated from resulting association and dissociation rate constants (kₐ) and […].

[9] = target: T8, mouse DLL4, full length, overexpressed on CHO cells (mouse, UniProt Q9JI71 27-686); experiment: FMAT, hNotch1-Fc on CHO-mDLL4, -HSA
T8 construct: whole, on cells; also called mDLL4; CHO-mDLL4

[10] = target: T9, human DLL4, full length, overexpressed on cells (human, UniProt Q9NR61 27-685); experiment: FMAT, hNotch1-Fc on CHO-hDLL4, -HSA
T9 construct: CHO cells in FMAT, HEK293 cells in the reporter assay; also called hDLL4; CHO-hDLL4

[11] = target: T10, recombinant human VEGF165 (human, UniProt P15692-4 27-191, biotinylated in the competition assays); experiment: AlphaScreen, hVEGF165/hVEGFR1-Fc competition, -HSA
T10 construct: Bought protein; also called hVEGF165; rhVEGF165
T10 sequence (P15692 other isoform, or with tags, fused parts or gaps): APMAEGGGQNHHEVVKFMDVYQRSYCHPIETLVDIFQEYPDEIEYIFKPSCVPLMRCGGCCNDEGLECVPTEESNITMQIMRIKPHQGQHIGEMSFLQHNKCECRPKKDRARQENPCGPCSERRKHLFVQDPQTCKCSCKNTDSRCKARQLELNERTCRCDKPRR

[12] = target: T10, recombinant human VEGF165; experiment: AlphaScreen, hVEGF165/hVEGFR2-Fc competition, -HSA

Binder	binding result (human Jagged-1)	EC50 (read off the curve) [1]	IC50 (recombinant human DLL4 [2])	EC50 (recombinant mouse DLL4)	binding result (human DLL1)	IC50 [3]	EC50 (read off the curve) [4]	IC50 [5]	IC50 (recombinant human DLL4 [6])	EC50 (recombinant human DLL4 [7])	% inh [9]	IC50 [9]	% inh [10]	IC50 [10]	further results
B1	no binding (tested: 2.5e-7 M)	~6 nM	12.3 nM	30 nM	no binding (tested: 2.5e-7 M)	39.1 nM	~7 nM	41 nM	2.3 nM	13.1 nM					
B2	no binding (tested: 2.5e-7 M)	~6 nM	33.9 nM	244 nM	no binding (tested: 2.5e-7 M)	28.7 nM	~6 nM	49.6 nM	5.4 nM	44.3 nM					Kd (recombinant human DLL4 [8]): 45 nM; koff (recombinant human DLL4 [8]): 0.0049 s⁻¹; kon (recombinant human DLL4 [8]): 110000 M⁻¹ s⁻¹
B3	no binding (tested: 2.5e-7 M)	~4 nM	6.9 nM	8.7 nM		22 nM	~7 nM	33.7 nM	1.6 nM	4.1 nM					Kd (recombinant human DLL4 [8]): 9.4 nM; koff (recombinant human DLL4 [8]): 0.0011 s⁻¹; kon (recombinant human DLL4 [8]): 120000 M⁻¹ s⁻¹
B4	no binding (tested: 2.5e-7 M)	~10 nM	17.3 nM	83.4 nM	no binding (tested: 2.5e-7 M)	53.9 nM	~10 nM	49.5 nM	2.2 nM	7.9 nM					
B5											100%	6.7 nM	102%	3.6 nM	
B6											100%	3.4 nM	102%	6.7 nM	% inh [11]: 80%; IC50 [11]: 0.1 nM; % inh [12]: 100%; IC50 [12]: 0.07 nM
B7											95%	7.9 nM	97%	16.1 nM	% inh [11]: 97%; IC50 [11]: 0.02 nM; % inh [12]: 100%; IC50 [12]: 0.01 nM
